Reference: patent publication US20060052294A1 (CINCINNATI CHILDREN S HOSPITAL MEDICAL CENTER, published 2006)

T1: human C5a receptor (human, UniProt P21730 1-350)
T1 sequence (looked up): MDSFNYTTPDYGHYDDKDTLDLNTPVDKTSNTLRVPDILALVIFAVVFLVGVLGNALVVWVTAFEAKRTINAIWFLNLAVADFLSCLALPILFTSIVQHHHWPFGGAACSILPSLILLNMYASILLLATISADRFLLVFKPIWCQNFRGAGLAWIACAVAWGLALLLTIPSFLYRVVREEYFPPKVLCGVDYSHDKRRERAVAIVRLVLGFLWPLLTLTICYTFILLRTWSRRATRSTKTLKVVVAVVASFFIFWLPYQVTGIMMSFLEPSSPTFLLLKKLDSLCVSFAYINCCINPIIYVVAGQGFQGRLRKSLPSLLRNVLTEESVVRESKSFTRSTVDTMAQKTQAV


Tests used:
[1] = biological target: T1, human C5a receptor; experiment: cell-based or functional assay
[2] = biological target: T1, human C5a receptor; experiment: competition with 125I-rhC5a tracer on RBL cells stably transfected with human C5a receptor, on ice, filtration
Procedure: (§1) For competitive binding studies, 40 μl of a reaction mixture containing a constant amount of ¹²⁵I-rhC5a as tracer (≈17000 cpm) and increasing concentrations of unlabeled C5a muteins were incubated in a microtiter plate on ice. […] The binding reaction was started by adding 25 μl of ice-cold RBL-C5aR cell suspension. After incubation on ice for 30 min, cell bound and free ¹²⁵I-rhC5a were separated by filtration of 60 μl through a microtitration-membrane plate (Multiscreen™-HV; 0.45 μm, MAHV N45, Millipore) using a vacuum manifold (Millipore). […] Punched out membranes were counted in a γ-counter (Packard, Canberra). The plot of cell-bound ¹²⁵I-rhC5a versus concentration of unlabeled competitor yields the half-maximal inhibitory concentrations (IC₅₀) (cf. FIG. 3, Table 1).

[3] = biological target: T1, human C5a receptor; experiment: competition with 125I-rhC5a on RBL cells stably transfected with human C5a receptor; reference rhC5a
Procedure: The values for rhC5a (“isolated” curve closest to the y-axis) are depicted as black circles, those for the mutein A8B as rhombi, for A8BLeu70 as triangles, for A8BLeu70Tyr73 as squares, for A8BArg as hexagons, for A8Bdel71-73 as dark-gray circles and those for A8BCys73 as light-gray circles.
as §1

ED50 [nM] (N-acetyl-beta-D-glucosaminidase release from C5aR-RBL cells) [1]	IC50 [2] [nM]	ID50 [nM] (inhibition of N-acetyl-beta-D-glucosaminidase release from C5aR-RBL cells) [1]	fold difference of IC50 against rhC5a [3] [fold]	Binder
3.5	2.7	–	–	recombinant human C5a (ligand, 74-residue recombinant human C5a; also called rhC5a; rC5a) TLQKKIEEIAAKYKHSVVKKCCYDGACVNNDETCEQRAARISLGPRCIKAFTECCVVASQLRANISHKDMQLGR
> 4000	–	60.8	–	C5a-(1-66,Cys27Ala)-A8B-Lys69-Ala70 (ligand) TLQKKIEEIAAKYKHSVVKKCCYDGAAVNNDETCEQRAARISLGPRCIKAFTECCVVASQLRANISFKKALLR
> 4000	35.4	22.3	–	C5a-(1-66,Cys27Ala)-A8B (ligand, Mutein of human C5a, expressed in the E. coli periplasm without a fusion partner and purified on mAb 561; also called C5aRA A8B; mutein A8B) TLQKKIEEIAAKYKHSVVKKCCYDGAAVNNDETCEQRAARISLGPRCIKAFTECCVVASQLRANISFKRSLLR
36.8	30.1	–	–	C5a-(1-66,Cys27Ala)-A8B-Ala69 (ligand, also called A8B-Arg69Ala) TLQKKIEEIAAKYKHSVVKKCCYDGAAVNNDETCEQRAARISLGPRCIKAFTECCVVASQLRANISFKASLLR
5.9	5.4	–	–	C5a-(1-66,Cys27Ala)-A8B-Asp69 (ligand, also called A8B-Arg69Asp) TLQKKIEEIAAKYKHSVVKKCCYDGAAVNNDETCEQRAARISLGPRCIKAFTECCVVASQLRANISFKDSLLR
> 4000	43.1	17.5	16	C5a-(1-66,Cys27Arg)-A8B (ligand, also called A8B-Arg27; A8B Arg 27) TLQKKIEEIAAKYKHSVVKKCCYDGARVNNDETCEQRAARISLGPRCIKAFTECCVVASQLRANISFKRSLLR
> 4000	37.3	17.4	–	C5a-(1-66,Cys27Ala)-A8B-Cys73 (ligand, also called Ab8-Cys73; 67-FKRSLLC-73) TLQKKIEEIAAKYKHSVVKKCCYDGAAVNNDETCEQRAARISLGPRCIKAFTECCVVASQLRANISFKRSLLC
> 4000	21.3	8.8	8	C5a-(1-66,Cys27Ala)-A8B-Leu70-Tyr73 (ligand, also called 67-FKRLLLY-73) TLQKKIEEIAAKYKHSVVKKCCYDGAAVNNDETCEQRAARISLGPRCIKAFTECCVVASQLRANISFKRLLLY
> 4000	23.1	7.9	–	C5a-(1-66,Cys27Ala)-A8B-Leu70 (ligand, also called 67-FKRLLLR-73) TLQKKIEEIAAKYKHSVVKKCCYDGAAVNNDETCEQRAARISLGPRCIKAFTECCVVASQLRANISFKRLLLR
> 4000	26.9	17.4	–	C5a-(1-66,Cys27Ala)-A8B-Del.71-73 (ligand, also called C5a-(1-66, Cys27Ala)-FKRS-70; 67-FKRS-70) TLQKKIEEIAAKYKHSVVKKCCYDGAAVNNDETCEQRAARISLGPRCIKAFTECCVVASQLRANISFKRS
